This note sets out measurements from paper PMC7494870, “Arrangement and symmetry of the fungal E3BP-containing core of the pyruvate dehydrogenase complex” (Nature Communications, 2020).

Data set [1] has as its target T1, N. crassa PX (30-426), His-tagged, separately expressed (N. crassa, UniProt Q7RWS2 30-426).
T1 construct: Protein X (PX), Neurospora crassa, residues 30-426 of uniprot Q7RWS2; His6 tag is cleavable with TEV; protein was either cleaved with TEV or eluted with imidazole depending on the purpose; also called full-length PX; source: E. coli Rosetta2 (DE3), pRSET vector, single expression, Ni-NTA
T1 sequence (looked up): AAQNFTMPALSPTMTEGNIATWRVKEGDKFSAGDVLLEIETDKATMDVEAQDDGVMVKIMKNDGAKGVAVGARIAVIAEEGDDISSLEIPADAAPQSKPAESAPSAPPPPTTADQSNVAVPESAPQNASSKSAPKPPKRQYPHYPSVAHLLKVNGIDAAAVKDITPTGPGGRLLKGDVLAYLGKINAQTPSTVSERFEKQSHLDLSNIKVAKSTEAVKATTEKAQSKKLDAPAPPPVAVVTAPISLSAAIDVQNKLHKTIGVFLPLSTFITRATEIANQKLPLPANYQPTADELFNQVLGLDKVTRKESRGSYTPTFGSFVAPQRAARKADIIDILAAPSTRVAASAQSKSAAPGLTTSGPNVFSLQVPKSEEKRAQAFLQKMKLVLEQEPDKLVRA
The data set is described as follows: pull-down; separately expressed tE2 and His-tagged PX variants, brief incubation, co-purified by Ni-NTA affinity.

Data set [2] concerns the molecule itself. The data set is described as follows: cryo-EM structure; single-particle cryo-EM of the reconstituted tE2 + PX30 recombinant subcomplex, icosahedral symmetry.
Data set [3] concerns the molecule itself. The data set is described as follows: cryo-EM structure; single-particle cryo-EM of the co-expressed tE2 + PX261 subcomplex, icosahedral symmetry.
Data set [4] addresses T2, Neurospora crassa protein X (endogenous, in the native PDC) (N. crassa (endogenous in N. crassa …, UniProt Q7RWS2 1-426)).
T2 construct: Protein X (PX) of the pyruvate dehydrogenase complex, Neurospora crassa, uniprot Q7RWS2, locus NCU00050; Forms trimers inside the E2 core; also called PX; X-component; source: endogenous, PDC purified from N. crassa mitochondria (DDM lysis, sucrose cushion, sucrose gradient, SEC)
T2 sequence (looked up): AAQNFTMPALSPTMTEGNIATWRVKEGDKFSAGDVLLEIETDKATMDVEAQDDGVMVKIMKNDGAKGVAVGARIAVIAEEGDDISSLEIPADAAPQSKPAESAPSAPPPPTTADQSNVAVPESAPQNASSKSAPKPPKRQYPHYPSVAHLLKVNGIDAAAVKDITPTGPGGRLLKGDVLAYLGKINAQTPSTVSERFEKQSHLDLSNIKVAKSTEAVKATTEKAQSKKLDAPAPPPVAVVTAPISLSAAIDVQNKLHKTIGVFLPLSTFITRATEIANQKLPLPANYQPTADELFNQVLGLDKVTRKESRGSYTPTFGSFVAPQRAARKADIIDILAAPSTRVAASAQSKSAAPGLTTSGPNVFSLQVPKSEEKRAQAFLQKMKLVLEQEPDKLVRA
The data set is described as follows: cryo-EM structure; single-particle cryo-EM of intact native PDC purified from N. crassa mitochondria; icosahedral and tetrahedral (classes X, Y) reconstructions. To be noted: both partners purified.

Data set [5] deals with the molecule itself. Described as above.

B1: N. crassa E2 core-forming domain, tE2 (225-458), separately expressed (domain or fragment, UniProt P20285 225-458, looked up)
chain: AAYTDVPISGMRKTIAARLKESVTENPHFFVSTNLSVSKLLKLRQALNSSADGRYKLSVNDFLIKAMGIASKRVPTVNSSWRDGVIRQFETVDVSVAVATPNGLITPIVKGVEGKGLESISAAVKELAKKARDGKLKPEEYQGGSISISNMGMNPAVQSFTAIINPPQAAILAVGAPQKVAVPVENEDGTTGVSWDEQIIVTASFDHKVVDGAVGAEWIRELKKVIENPLELLL
notes: E2 core-forming domain, Neurospora crassa, residues 225-458 of uniprot P20285; His6 tag is cleavable with thrombin; PDB 6ZLO covers residues 227-458; source: E. coli Rosetta2 (DE3), pRSET vector, single expression
Turning to B1, the binding result in data set [1] and in data set [2] was “binds” throughout.

B2: N. crassa E2 core-forming domain, tE2 (225-458), untagged, co-expressed with PX constructs (domain or fragment, UniProt P20285 225-458, looked up)
chain: AAYTDVPISGMRKTIAARLKESVTENPHFFVSTNLSVSKLLKLRQALNSSADGRYKLSVNDFLIKAMGIASKRVPTVNSSWRDGVIRQFETVDVSVAVATPNGLITPIVKGVEGKGLESISAAVKELAKKARDGKLKPEEYQGGSISISNMGMNPAVQSFTAIINPPQAAILAVGAPQKVAVPVENEDGTTGVSWDEQIIVTASFDHKVVDGAVGAEWIRELKKVIENPLELLL
notes: E2 core-forming domain, Neurospora crassa, residues 225-458 of uniprot P20285; also called untagged E2 core-forming domain; source: E. coli Rosetta2 (DE3), petDuet dual-expression vector, co-expressed with His-tagged PX constructs, in lysate; co-purified on Ni-NTA
For the molecule B2, the binding result in data set [3] is given as “binds”.

B3: Neurospora crassa pyruvate dehydrogenase complex E2 (endogenous, core of the native PDC) (enzyme, UniProt P20285 29-458, looked up)
chain: ASYPPHTVVKMPALSPTMTSGGIGAWQKKPGDKIEPGEVLVEIETDKAQMDFEFQEEGVLAKILKDSGEKDVAVGNPIAILVEEGTDVNAFKDFTLKDAGGETSPAVPKDEPKNESTASAPTPAPTPAPEPENTSFTGRFQTALEREPNALPAAKRLAREKGIDLRNVKGSGPGGKITEEDVKKALASAPAAGAAAAAYTDVPISGMRKTIAARLKESVTENPHFFVSTNLSVSKLLKLRQALNSSADGRYKLSVNDFLIKAMGIASKRVPTVNSSWRDGVIRQFETVDVSVAVATPNGLITPIVKGVEGKGLESISAAVKELAKKARDGKLKPEEYQGGSISISNMGMNPAVQSFTAIINPPQAAILAVGAPQKVAVPVENEDGTTGVSWDEQIIVTASFDHKVVDGAVGAEWIRELKKVIENPLELLL
notes: E2 of the pyruvate dehydrogenase complex, Neurospora crassa, uniprot P20285; residues 232-458 identified in the native reconstruction; Icosahedral core of 60 E2 in the native complex; only the core-forming domain is ordered in the map; also called E2 core; PDC core; source: endogenous, PDC purified from N. crassa mitochondria (DDM lysis, sucrose cushion, sucrose gradient, SEC); copies: 60
In the case of B3, the results for the “stoichiometry N” value in data set [4] and in data set [5] were no more than 12 PX monomers per E2 core and 60, respectively.
